Laboratory results: the supplement of paper PMC10724198
± gives the standard deviation of the averaged measurements.

Test system: Saccharomyces cerevisiae
Experiment: protein stability index of tFT-peptide fusion (C-terminal peptide) (PSI (0-1 scale)); higher = more stable (slower turnover)
Settings: genetic background: wild type; temperature: 30 C
Experimental: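 Multiplexed protein stability (MPS) profiling in S. cerevisiae. Random 12-aa peptides (tFT-X12 library) are fused to the C-terminus of a sfGFP-mCherry tandem fluorescent timer, after mCherry and a GGGS linker. Cells are FACS-sorted into 8 mCherry/sfGFP bins and deep-sequenced. The protein stability index (PSI) is the read-weighted bin average, scaled from 0 (unstable) to 1 (stable). Only peptides with >10 reads are reported; cells were grown at 30 °C in SC-His with glucose.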
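Further: PSI is a weighted mean of sequencing reads over stability bins, variants kept only with over 10 reads, mCherry proximal and sfGFP distal, peptide attached via GGGS linker.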

Work on GMTYEKIKNVIE yielded a protein stability index of 0.651 ± 0.025.
Work on PFPSPPSPRDAS yielded a protein stability index of 0.688 ± 0.042.
For LVVPNFPLSFSV, the protein stability index was 0.732 ± 0.055.
Sequence ARGDDGSTCSRG has a protein stability index of 0.697 ± 0.059.
Work on PPRLPPLPPSYP yielded a protein stability index of 0.777 ± 0.14.
With PFATARLFPLPP the protein stability index was 0.804 ± 0.019.
Sequence YHDVRSLGPSRT has a protein stability index of 0.666 ± 0.04.
Sequence GCGGGGGAWKGV has a protein stability index of 0.751 ± 0.056.
In the case of FGSLCPRAHSLV, the protein stability index is reported as 0.71 ± 0.011.
Work on HRGAVRGGSEIW yielded a protein stability index of 0.729 ± 0.033.
TKKKRKKKNTKK showed a protein stability index of 0.685 ± 0.061.
With WAARLDISQSPI the protein stability index was 0.754 ± 0.011.
With CEFGGEEINQTV the protein stability index was 0.6951 ± 0.0015.
Sequence PHPHLPAPTPRT has a protein stability index of 0.702 ± 0.0079.
RMEGCRLSLGVP gave a protein stability index of 0.63 ± 0.075.
With WDGAGGGFGLVV the protein stability index was 0.726 ± 0.061.
In the case of PAPPSPPPPLYP, the protein stability index is reported as 0.721 ± 0.046.
PPPTRPPPPPSL showed a protein stability index of 0.704 ± 0.075.
For GGTGWVGEMGGR, the protein stability index was 0.796 ± 0.069.
SAGARIRPADAL showed a protein stability index of 0.6801 ± 0.0022.
Work on PPPAPPHPPLRH yielded a protein stability index of 0.682 ± 0.027.
For LQRHSSQQTTSA, the protein stability index was 0.658 ± 0.025.
RSPPPFLSIFPL gave a protein stability index of 0.745 ± 0.01.
VPGQRRPSQSPR gave a protein stability index of 0.653 ± 0.21.
For LFCARNGILLSV, the protein stability index was 0.516 ± 0.0084.
In the case of EHHLSRLKSLLR, the protein stability index is reported as 0.709 ± 0.058.
INKKKQRIRGKN was tested, and the protein stability index was 0.69 ± 0.064.
LYRRGTYFEGLI gave a protein stability index of 0.704 ± 0.012.
For WGGGLGTAVVGV, the protein stability index was 0.643 ± 0.021.
CTLVSREHFGFL gave a protein stability index of 0.685 ± 0.041.
Sequence ITRATPILSYKK has a protein stability index of 0.677 ± 0.09.
With GLAELKSYDGEG the protein stability index was 0.696 ± 0.034.
Work on YRRDVGAARVLP yielded a protein stability index of 0.67 ± 0.021.
With SVWGGVPLVRET the protein stability index was 0.6854 ± 0.0015.
For NPLKAGFLVVTT, the protein stability index was 0.6508 ± 0.0032.
HGRGVEYGVCDN gave a protein stability index of 0.6776 ± 0.0066.
QLLCLFSIPRSA gave a protein stability index of 0.7241 ± 0.0043.
APAWSFFGLDKS gave a protein stability index of 0.702 ± 0.015.
Work on HLGVLDSFLAEG yielded a protein stability index of 0.629 ± 0.028.
For PLASRPHPLPPP, the protein stability index was 0.671 ± 0.02.
Sequence KIGNDQNVEDRK has a protein stability index of 0.756 ± 0.059.
With TQLEHQRESKSI the protein stability index was 0.672 ± 0.021.
GFISFASRISTS gave a protein stability index of 0.722 ± 0.032.
With NIRYRQKEKKND the protein stability index was 0.573 ± 0.031.
KKKKKKKKKNNK gave a protein stability index of 0.6851 ± 0.0035.
DQKFSPYRTPPF was tested, and the protein stability index was 0.667 ± 0.058.
For EKIKNKDYIEKT, the protein stability index was 0.887 ± 0.094.
GVVRGEAGVIGR was tested, and the protein stability index was 0.817 ± 0.087.
REMDDRLEQSVP showed a protein stability index of 0.743 ± 0.017.
For GLVRGGCGTVGG, the protein stability index was 0.774 ± 0.18.
GGRVWGAVGAGP was tested, and the protein stability index was 0.627 ± 0.082.
AATDWFHLPFPP gave a protein stability index of 0.682 ± 0.15.
For IALVFCPMNGRI, the protein stability index was 0.686 ± 0.014.
Work on KKITSIHKKRER yielded a protein stability index of 0.822 ± 0.12.
For SGSTRTEDDGAR, the protein stability index was 0.652 ± 0.038.
ATYNRPPPPGLD gave a protein stability index of 0.682 ± 0.068.
SLPGAPSPPHPL showed a protein stability index of 0.744 ± 0.0095.
For LPCTTPLLFTPV, the protein stability index was 0.706 ± 0.21.
LPLCSPPAPPSS showed a protein stability index of 0.666 ± 0.026.
Work on IKKKKKKESRSS yielded a protein stability index of 0.693 ± 0.065.
PAYVSTLPPLLL was tested, and the protein stability index was 0.694 ± 0.086.
PPLTPPTPVPPG showed a protein stability index of 0.6937 ± 0.0056.
In the case of APPFNPSRLSRP, the protein stability index is reported as 0.725 ± 0.066.
With GVLVFGLGLVRD the protein stability index was 0.623 ± 0.027.
QLETAIEEKNNE was tested, and the protein stability index was 0.704 ± 0.0087.
FLFASSGFLGRF showed a protein stability index of 0.67 ± 0.036.
FVVGGGALGCYA gave a protein stability index of 0.661 ± 0.019.
AWVVFGLRFGFD showed a protein stability index of 0.534 ± 0.053.
FLSFRLCTAAPV was tested, and the protein stability index was 0.559 ± 0.031.
For RPAIPPATPPPP, the protein stability index was 0.649 ± 0.027.
Sequence KIKEKNEKRELI has a protein stability index of 0.686 ± 0.11.
ELDRIRPHEQSH gave a protein stability index of 0.723 ± 0.03.
In the case of LSSLYSSLTFFL, the protein stability index is reported as 0.651 ± 0.014.
PLSLLVHPLPPS showed a protein stability index of 0.679 ± 0.011.
With LFCSSHRMQTKL the protein stability index was 0.746 ± 0.029.
For GIVCGDADMEGG, the protein stability index was 0.676 ± 0.051.
In the case of PSWPRLSFRPST, the protein stability index is reported as 0.689 ± 0.022.
VSGDPWMWDVFI showed a protein stability index of 0.746 ± 0.036.
LTPTLLTNPQAD gave a protein stability index of 0.678 ± 0.022.
FPGVRNGSRFPP showed a protein stability index of 0.637 ± 0.0067.
Sequence IGGFGVRIYFGG has a protein stability index of 0.627 ± 0.056.
In the case of PPPPAPPPPVPS, the protein stability index is reported as 0.69246 ± 0.00027.
KLIVPCSPIRLS gave a protein stability index of 0.6929 ± 0.0043.
PPFLRSALRSSS showed a protein stability index of 0.672 ± 0.015.
Sequence ETCTRHHPRHNS has a protein stability index of 0.687 ± 0.043.
AHGASGNRSHNQ showed a protein stability index of 0.644 ± 0.037.
Sequence WSSTPSCVPDLP has a protein stability index of 0.721 ± 0.054.
In the case of LPPPPSASPPRP, the protein stability index is reported as 0.794 ± 0.06.
NYSKPSYLVRAK gave a protein stability index of 0.697 ± 0.053.
In the case of VFRFCCQTGALR, the protein stability index is reported as 0.671 ± 0.02.
In the case of LKRPDVTKKKSI, the protein stability index is reported as 0.62 ± 0.077.
WSFMYLYFFDSW was tested, and the protein stability index was 0.685 ± 0.086.
Sequence RRGRNGGKADLR has a protein stability index of 0.657 ± 0.0073.
For TKRQKEKKKNKE, the protein stability index was 0.735 ± 0.042.
SPPCPLPLPPPP gave a protein stability index of 0.626 ± 0.057.
Work on SVGQWSGGRACW yielded a protein stability index of 0.751 ± 0.043.
In the case of DACIVRFRDTYL, the protein stability index is reported as 0.688 ± 0.018.
With QGPPPTPASHGP the protein stability index was 0.672 ± 0.026.
HLPPSRPSFSAP showed a protein stability index of 0.747 ± 0.015.
KRLEFLTHAVFK gave a protein stability index of 0.7281 ± 0.0025.
Work on SRPLPPPLPPPP yielded a protein stability index of 0.628 ± 0.025.
With VSIPRTLFITRF the protein stability index was 0.67018 ± 0.00016.
For GRGGGGGRDREA, the protein stability index was 0.703 ± 0.076.
SPFLFPRTVVGA was tested, and the protein stability index was 0.671 ± 0.11.
Sequence GGGGGCLSGRLG has a protein stability index of 0.654 ± 0.028.
DFWSEFILLCSV gave a protein stability index of 0.6019 ± 0.0039.
In the case of GFGSGVVAGSSL, the protein stability index is reported as 0.682 ± 0.044.
For APNPPPPPPPLP, the protein stability index was 0.729 ± 0.03.
Work on ECRGGPGLGGGV yielded a protein stability index of 0.635 ± 0.046.
ILPPPYVPARLS gave a protein stability index of 0.577 ± 0.054.
VTEWGVKWWEDR showed a protein stability index of 0.714 ± 0.11.
RGDGAGQARGVV showed a protein stability index of 0.684 ± 0.053.
In the case of IKKKNRKERQKK, the protein stability index is reported as 0.678 ± 0.015.
In the case of VSLCYGGGFWGR, the protein stability index is reported as 0.698 ± 0.018.
VNTNLRSTRSNT showed a protein stability index of 0.7271 ± 0.0061.
RLTLAFQKRSPP gave a protein stability index of 0.668 ± 0.1.
GVEVAGCPGARG gave a protein stability index of 0.655 ± 0.042.
In the case of LSEVFLSMNVVL, the protein stability index is reported as 0.676 ± 0.06.
SPHPTAPFVSTL gave a protein stability index of 0.68 ± 0.087.
For ERKKDGRKVRKK, the protein stability index was 0.658 ± 0.012.
PLRPPAPRHSPP showed a protein stability index of 0.723 ± 0.013.
Sequence GRQLNDSISTLK has a protein stability index of 0.642 ± 0.015.
For ADRVHLNGLEML, the protein stability index was 0.747 ± 0.0093.
For PVRRAHPPPPRP, the protein stability index was 0.674 ± 0.014.
LVLLDQISVPLI was tested, and the protein stability index was 0.6474 ± 0.00096.
LFLLALFPPPAS was tested, and the protein stability index was 0.738 ± 0.013.
Sequence CSCGRGRLARRL has a protein stability index of 0.686 ± 0.13.
Work on LLSPPPHPPPLI yielded a protein stability index of 0.6648 ± 0.0038.
Sequence HNSTKTQSLRGT has a protein stability index of 0.719 ± 0.016.
With EKIERDKRKKVK the protein stability index was 0.621 ± 0.0076.
Work on LYSTATLSLCSR yielded a protein stability index of 0.707 ± 0.12.
HVPQPNTVCPHL showed a protein stability index of 0.754 ± 0.033.
EGGRGGVLMRGV showed a protein stability index of 0.727 ± 0.013.
Sequence FVFSIPPPPRPL has a protein stability index of 0.59 ± 0.15.
In the case of GEGAWNRKKPGD, the protein stability index is reported as 0.632 ± 0.067.
Work on HSYSPRSLLVDP yielded a protein stability index of 0.727 ± 0.039.
For QTRDFRRASYAP, the protein stability index was 0.646 ± 0.019.
FFVCCGTRLIGL was tested, and the protein stability index was 0.716 ± 0.04.
CGSGVAVGVLVL showed a protein stability index of 0.6 ± 0.038.
In the case of EKKRERRRERKE, the protein stability index is reported as 0.65 ± 0.091.
With GAQVGVRFLFSI the protein stability index was 0.55 ± 0.011.
Sequence PYHVPTPRATNR has a protein stability index of 0.659 ± 0.026.
Work on WGGAGGGSGYGR yielded a protein stability index of 0.68 ± 0.064.
ISWERIHEKKRK gave a protein stability index of 0.784 ± 0.096.
For KPPPSISLSWLE, the protein stability index was 0.716 ± 0.0024.
RVGGGRDVRGGG gave a protein stability index of 0.723 ± 0.042.
